From the nanobody polyreactivity screen of Harvey et al. (2022)

Assay: yeast display, Sf9 membrane polyspecificity reagent, FACS + sequencing; frameworks hold sequencing errors
Procedure, shortened: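 Synthetic nanobody libraries on Saccharomyces cerevisiae BJ5465 were galactose-induced for 36–48 hours, stained 1 hour at 4 °C with 10% biotinylated, detergent-solubilized Sf9 membrane reagent and enriched on streptavidin microbeads. FACS then separated cells into low and high (top ~1%) gates by anti-HA (expression) and streptavidin (reagent binding) fluorescence. Genes were colony-PCR amplified, MiSeq 2 × 250 sequenced and CDR-length filtered. A clone's polyreactivity label is that of its gate of origin.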
With “QVQLVESGGCLVQAGGSLRLSCAASGFIFGSNVMGWYRQAPGKERELVAAISYSGASTYYADSVKGRFTISRDNAKNTVYLQMNSLKPEDTAVYYCNAESYYFYWPVYSYDYWGQGTQVTVSS” the “polyreactivity (PSR sort gate)” value was “low polyreactivity”.
For “QVQLVESGGGLVQAGGSLRLSCAASGSTFWPYAMGWYRQAPGKERELVAAIRVIGGSTYYADSVKGRFTISRDNAKNSVYLQMNSLKPEDTAVYYCNAYRPGGARFYARYRYDYWGQGTQVTVSS”, the “polyreactivity (PSR sort gate)” value was “low polyreactivity”.
With “QVQLVESGGGLVQAGGSLRLSCAASGRTFGYYAMGGYRQAPGKERELVAGIRSSGGSTYYADSVKGRFTISRDHAKNTVYLKMNSLIPEDTAVYYCAARLRSYHYRYGYDYWGQGTQVTVSS” the “polyreactivity (PSR sort gate)” value was “high polyreactivity”.
With “QVQLVESGGRLVQAGGSLRLSCAASGRTFIGYARGWYRQAPGKERELVAGISWSGGSTYYADSVKGRFTISRDNAKNTVYLQMNSLKPEDTAVYYCAARGRWSTEYGYWGQGTQVTVSS” the “polyreactivity (PSR sort gate)” value was “low polyreactivity”.
With “QVHLVESGGGLVQAGGSLRLSCAASGYTFLANAMGWYSQAPGKERELVAAISSGGTTYYADSVKGRFTISRDNAKNTVYLQMNSLKPEDTAVYYCATVFRDYDFNHWGQGTQVTVSS” the “polyreactivity (PSR sort gate)” value was “low polyreactivity”.
With “QVQLVESGGGLVQAGGSLRLSCAASGRNFYYNAMGWYRPAPGKERELVAAISSGGSTTYADSVKGRFTISRDNAKNTVYLQLNSLKPEDTAVYYCNADISAHYVIGVPTGYYWGQGTQVTVSS” the “polyreactivity (PSR sort gate)” value was “low polyreactivity”.
For “QVQLVESGGGLVQAGGSLRLSCAASGSIFYENAMGWYRQAPGKERELVAAISWNAGSTYYADSVKGRFTISRDNAKNTVYFQMNSLKPEDTAVYYCATTADGIRYDYWGQGTQVTVSS”, the “polyreactivity (PSR sort gate)” value was “low polyreactivity”.
With “QVQLVESVGGLVQAGGSLRLSCAASGSTFAGNAMGWSRQAPGKERELVAAIDSSTGSTYYADSVKGRFTISRDNAKNTVYLQMNSLKPEDTSVYYSNKTSFLVKLDYWGHGTQVTVSS” the “polyreactivity (PSR sort gate)” value was “low polyreactivity”.
With “QVQLVESGGGLVQAGGSLRLSCAASGSIFYPYVMGWYIQAPGKESELVASISRRGGRTYYADSVKGRFTISRDYAKNTVYLEMNSLKPEDTAVYYCAKRTYDSFYGYYYWGQVTQVTVSS” the “polyreactivity (PSR sort gate)” value was “high polyreactivity”.
In the case of “QVQLVESGGGLVQAGGSLRLSCAASGITFRSYAMGWYRQAPGKERELVATISWSGGITYYADSVKGRFTISRDNAKNTVYLQMNSLKPEDTAVYYCAKASQSWGRDDYYYWGQGTQVTVSS”, the “polyreactivity (PSR sort gate)” value is reported as “low polyreactivity”.
With “QVQLVESGGGLVQAGGSLRISCAASGFILGYKDMGWYRQAPGKERELVAAISSSGGSTYYADSVKGRFTISRDNSKNTVYLQMNILKPEDTAVYYCGLPYQTSYGEYDYWGQGTQVTVSS” the “polyreactivity (PSR sort gate)” value was “low polyreactivity”.
With “QVQLVESGGCLVQAGGSLRLSCAASGSTFNFYAMGWYRQAPGKEREFVAAITSSGDSTYYADSVKGRFTISRDNAKNTVYLQMNSLKPEDTAVYYCAALTPRNRYRKFDYWGQGTQVTVSS” the “polyreactivity (PSR sort gate)” value was “high polyreactivity”.
In the case of “QVQLVESGGGLVQAGGSLRLSFAACGSIFTVYTMGWYRQAPGKERELVAAINSRGGTTYYADSVKGRFTISRDTAKNTVYLQMNSLKPEDTAVYYCAADWGYKDFGYWGQGTQVTVSS”, the “polyreactivity (PSR sort gate)” value is reported as “high polyreactivity”.
For “QVQLVESGGGLVQAGGSLRLSCAASGSTFLPNAMGWYRQAPGTERELVATITFDGGSTYYADSVKGRFTISRDNAKNTVYLQMNSLKPEDTAVYYCNTVELYWRGYDYWGQGTQVTVSS”, the “polyreactivity (PSR sort gate)” value was “high polyreactivity”.
With “QVQLVESGGGLVQAAGSLRLICAASGRIFDVYAMGWYRPAPGKERELVAAITWSGTSTYYADSVKGRFTISRDNAKNTVYLQMNSLKPEDTAVYYCAAEVAYTDTEYFWYYYWGQGTQVTVSS” the “polyreactivity (PSR sort gate)” value was “high polyreactivity”.
For “QVQLVESGGGLVQAGGSLRLSCAASGRVFTPYAMGWYRQAPGKERELVAVIRDGSTYYADSVKGRFTISRDNAKNTVYLQMNSLKPEDTAVYYCRYDIWVWWSGAYDYWGQVTQVTVSS”, the “polyreactivity (PSR sort gate)” value was “low polyreactivity”.
In the case of “QVQLVESGGRLVQAGGSLRLSCAASGLIFYTYAMGWYRKAPGKERELVADINRSDGSTYYADSVKGRFTISRDNAKNTVYLQMNSLKPEDTAVYYCAVVGPYYSRFGGRYYYWGQGTQVTVSS”, the “polyreactivity (PSR sort gate)” value is reported as “low polyreactivity”.
For “QVQLVESGGGLVQAGGSLRLSCAASGFIFRYNAMGWYRQRPGKERELVAVITSGGRTYYADSVKGRFTISRDNAKNTVYLQMNSLKPEDTAFYYCNADSRHRRNYDYWGQGTQVTVSS”, the “polyreactivity (PSR sort gate)” value was “high polyreactivity”.
With “QVELVESGGCLVQARGSLRLSCAGSGSIFYRNAMGWYRQAPGKERELVAAISSDGSTNYADSVKGRFTISRDNAKITVDLQMNSLIPEDTAVYYCAGPWTEILDYWGQGTQVTVSS” the “polyreactivity (PSR sort gate)” value was “low polyreactivity”.
In the case of “QVQLVESGGGLVQAGGSLRLSCAASGSIFSYYAMGWYRQAPGKERELVAAITRSGSKNYADSVKGRFTISRDNAKNTVYLQMNSLKPEDTAVYYCAAETDESDWYYYWGQGTQVTVSS”, the “polyreactivity (PSR sort gate)” value is reported as “high polyreactivity”.
For “QGQLVESGGRLVQAGGSLRLSCAASGFIFRSYAMGWYRQAPAKERELVAVISRRGVNTPYADSVKGRFTISRDTSKNTVYLQMNSLKAEDTAVYYCAKGLTALGDYWGQGTQVNVSS”, the “polyreactivity (PSR sort gate)” value was “high polyreactivity”.
For “QVQLVESGGGLVQAGGSLRLSCAASGSIFGKNAMGWYRQAPGKERELVAAITWSGGSTYYADSVKGRFTISRDNAKNTVYLQMNSLKPEDTAVYYCNAVRVRVTSHRIRQLDYGYWGQGTQVTVSS”, the “polyreactivity (PSR sort gate)” value was “low polyreactivity”.
In the case of “QVQLVESGGGLVQAGGSLRLSCAASGLIFNWNDMGWYRQAPGKERELVAAISGDGGITYYADSVKGRFTISRDNAKNTVFLQMNSLKPEDTAVYYCNAGFTWGDWYDYWGQGTQVTVSS”, the “polyreactivity (PSR sort gate)” value is reported as “low polyreactivity”.
With “QVQLVESGGGLVQEGGSLRLSCAASGRTFDSYTMGWYRPAPGKQRELVADITFTGGSTYYADTVKGRFTISRDNAKYIVFLQMNSLKPEDTAVYYCNADREYKWYFRYDYWGQGTQVNVSS” the “polyreactivity (PSR sort gate)” value was “low polyreactivity”.
In the case of “QVQLVESGGGLVQAGGSLRLSCADSGRTFGRNVMGWYRQAPGKERELVASITRSGGSTYYADSVKGRFTISRDTAKNTVYLEMNSLKPEDTAVYYCAKCYYLWCSYWGPSQYDWGQGSQVTVSS”, the “polyreactivity (PSR sort gate)” value is reported as “high polyreactivity”.
In the case of “QVQLVESGGGLVQAGGSLRLSCAASGSTFWYAMGWYRQAPGKERELVAAITARGGRTYYADSVKGRFTISRDNAKNTVYLQMNSLKPEDTAVYYCAAVSTGIGARYNYWGQGTQVTVSS”, the “polyreactivity (PSR sort gate)” value is reported as “high polyreactivity”.
In the case of “QVQLVESGGGLVQAGGSLRLSCAASGRIFRGYGMGWYRQAPGKERELVAAITSRGGSTYYADSVKGRFTISRDNAKYTVYLQMNSLKPEDTAVYYCNRDFNHRPLQSPKRPPKLGYWGQGTQVTVSS”, the “polyreactivity (PSR sort gate)” value is reported as “high polyreactivity”.
In the case of “QVQLVESGGGLVQAGGSLRLSCAASGSIFWWNAMGWYRQAPGKERELVAGISRGGSTYYADSVKGRFTISRDNAKNTVYLQMNSLKPEDTAVYYCNADSDPVPAGYDYWGQGTQVTLSS”, the “polyreactivity (PSR sort gate)” value is reported as “low polyreactivity”.
For “QVQLVESGGGLVQAGGSLRLSCAASGFIIKWYAMGWYRQAPGKERELLAAISIDGGSTYYADSVKGRFTISRDNAKNTVYLQMNSLLPEDTAVYYCNAGYNGTQYLTRDYGLGMDYWGLGTQVTVSS”, the “polyreactivity (PSR sort gate)” value was “low polyreactivity”.
With “QVQLVESGGGLVQAGGSLRLSCAASGRIFITNAMGGYRQAPGKERELVASITVSGDSTYYADSVKGRFTISRDNAKNTVYLQMNSLKPEDTAVYYCAADYYALDKVLGYNYWGQGTQVTVSS” the “polyreactivity (PSR sort gate)” value was “low polyreactivity”.
For “QVQLQESGGRLVQSCGTLRLSCAASGTITVLYKIGRFRQAPGKEREFVASINYGTSTYYADSVKGRFTVSRDSAKNTVYLQMNSLKPEDTAVYYCAAAYRWQDVYRYWVQGTQVTVSS”, the “polyreactivity (PSR sort gate)” value was “low polyreactivity”.
With “QVQLGDSGGGLVQAGGSLRLICAASGLTIPDNTMGWYRQAPGKERELVSAIDWSGGGTDYADSVKGRFTISRDNAKNTVYLQMNSLYPVDTAVYYCATSWYIYPYDDWGQGTQVTVSS” the “polyreactivity (PSR sort gate)” value was “low polyreactivity”.
With “QVQLVESGGGLVQAGGSLRLSCAASGFTININDMRGYRQAPGIDTDLVAALSWNVGNRYYADSVKGRFTISRDNAKNTVYLQMKSLKPEDTAVYYCAADRYIRWVEFDYWGQGTQVTVSS” the “polyreactivity (PSR sort gate)” value was “low polyreactivity”.
For “QVQLVESGGGLVHAGGSLRLSCASSGIIFDYYAMAWYRQAPGKERELVASITGTTGSTYYADSVKGRFTISRDNAKINVYLQMNSLKPEDTAVYYCNVDTPYGGLVTMDYWGQGTQVTVSS”, the “polyreactivity (PSR sort gate)” value was “low polyreactivity”.
With “QVQLVESGGGLVQAGGSLRLSSPASGFTFLAYAMGWYRQAPGKERELVAAISASSGRTRYADSVKGRFTISRDNAKNTVYLQMISLKPEDTAVYYCAARYRGTYRRDYWGQGTQVTVSS” the “polyreactivity (PSR sort gate)” value was “high polyreactivity”.
In the case of “QVQLVESGGGLVQAGGSLRLSCAASGSIITWYAMGWYRQAPGKERELVAAISNSDSSTYYADSVKGRFTISRDNAKNTVYLQMNILKPEDTAVYYCAAEYGLAWYNFEHWGQGTQVTVSS”, the “polyreactivity (PSR sort gate)” value is reported as “high polyreactivity”.
In the case of “QVQLVESGGGLVQAGGSLRLSCAASGSTFLKNAMGWYRQAPGKERELVAAISYSTTRTYYADSVKGRFTISRDNAKNTVYLQMNSLKPEDTAVYYCNKASYWGSGFDYWGQGTQVTVSS”, the “polyreactivity (PSR sort gate)” value is reported as “low polyreactivity”.
In the case of “QVQLVESGGGLVQAGGSLRLSCAASGFIYGLYAMGWYRQAPGKERELVASISRRGGSTYSADSVKGRVTISRDNAKNTVYLQMNSLKPEDTAVYYCAVDIVSIRGYTYGYWGQGTQVTVSS”, the “polyreactivity (PSR sort gate)” value is reported as “high polyreactivity”.
In the case of “QVQLVESGGGLVQAGGSLRLSCAASGSTYSTNAMGWYRQAPGKERELVAAISRSGGSTYYADTVKRRFTISRDNAKITVYLQMNRLKPEDTAVYYCARYSFRGTNVRYDYWGQGTQVTVSS”, the “polyreactivity (PSR sort gate)” value is reported as “high polyreactivity”.
For “QVQLVESGGGLVQAGGSLRLSCAASGRIFSGNTMGWYRQAPGKERELVAAISKSGGRTYYADSVKGRFTISRDNAKNTVYLQMNSLKPEDTAVYYCNADYRSHYLYDYWGQGTQVTVSS”, the “polyreactivity (PSR sort gate)” value was “low polyreactivity”.
For “QVQLVESGGGLVQAGGSLRLSCAASGRIFVDYDMGWYRQAPGKERELVAAISFDGGNTYADSVKGRFTISRDNAKNTVYLQMNSLKPEDTAVYYCARDDTSPGYGDQSSNAAYYYWGQGTQVTVSS”, the “polyreactivity (PSR sort gate)” value was “low polyreactivity”.
